Reference: publication PMC6279372 (The Journal of Cell Biology, 2018)

Target: the molecule itself
Test: nonreducing SDS-PAGE

B1: His6-SipA^1-242 (domain or fragment)
chain: MVTSVRTQPPVIMPGMQTEIKTQATNLAANLSAVRESATATLSGEIKGPQLEDFPALIKQASLDALFKCGKDAEALKEVFTNSNNVAGKKAIMEFAGLFRSALNATSDSPEAKTLLMKVGAEYTAQIIKDGLKEKSAFGPWLPETKKAEAKLENLEKQLLDIIKNNTGGELSKLSTNLVMQEVMPYIASCIEHNFGCTLDPLTRSNLTHLVDKAAAKAVEALDMCHQKLTQEQGTSVGREAR
- binding result: binds
